T1: MHC class II I-A^b molecules purified by affinity chromatography (;mouse, UniProt P14434 24-218; P14483 28-226)
T1 MHC II alpha: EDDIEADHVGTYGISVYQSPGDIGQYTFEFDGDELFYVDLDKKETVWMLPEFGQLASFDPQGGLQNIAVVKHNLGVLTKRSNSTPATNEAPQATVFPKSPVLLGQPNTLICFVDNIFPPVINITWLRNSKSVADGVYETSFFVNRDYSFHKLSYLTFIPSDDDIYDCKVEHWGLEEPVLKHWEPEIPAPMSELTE
T1 MHC II beta: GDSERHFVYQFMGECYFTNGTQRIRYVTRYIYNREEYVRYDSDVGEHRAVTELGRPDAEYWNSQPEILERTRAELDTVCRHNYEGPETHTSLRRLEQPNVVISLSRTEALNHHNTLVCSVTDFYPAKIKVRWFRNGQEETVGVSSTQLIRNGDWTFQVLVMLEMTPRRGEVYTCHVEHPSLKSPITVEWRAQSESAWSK


Molecular target: T1, MHC class II I-A^b molecules purified …
Experiment: competitive peptide binding assay on purified I-Ab

Row | Binder | IC50 [nM]
1 | LYLVTPPSVVGGLGVT [AQP4 p133-149] | 184
2 | LFAINYTGASMNPARSF [AQP4 p202-218] | 16
3 | GILYLVTPPSVVGGLGVTMV [AQP4 131-150] | 112
4 | HLFAINYTGASMNPARSFGP [AQP4 201-220] | 28
5 | VAFKGVWTQAFW [AQP4 p24-35] | 4880
